Assay results published in the RNAGym collection of RNA variant scans (doi:10.7554/elife.90254).

B1: OR4K15 (parent)
chain: GUUAACGGUCAUAGGCCAUGGAAACUAGGAGCACCAUUUCGCUGCCAGUGAAGAAAUGAACAAAGAAAAUCUGGGCCAGGCAGGCAUCAAAAGAAAUAGUCUUGCGCUCAACCAGAAAGUCUGUAAUCAUUUUAAGGGUA

Variants of: B1
Experiment: self-cleavage, relative activity (ratio to wild type); higher = more cleavage; in vitro, sequencing; the parent is a self-cleaving ribozyme

| Variant | self-cleavage |
| --- | --- |
| A22G A33C | 0.57 |
| G20A U102C | 2.1 |
| A22G G137A | 1.63 |
| G21A U120A | 1.28 |
| A23G A62C | 0.98 |
| A23C A117G | 2.19 |
| A22G U108C | 0.03 |
| A22U A110G | 0.12 |
| U19C A95G | 1.58 |
| A22G G28C | 1.42 |
| A22G G28A | 1.28 |
| G20A A90G | 0.76 |
| U19C A126U | 0.65 |
| G20A A78G | 0.3 |
| A23G A56G | 1.18 |
| A22G U39G | 1.41 |
| A22G A89G | 0.62 |
| A22G A89U | 1.43 |
| A22U A64G | 1.62 |
| U19C U122A | 0.65 |
| U19C U122C | 0.46 |
| A22U G29A | 0.84 |
| A23C A114U | 0.01 |
| G21A A126G | 1.09 |

| Variant | self-cleavage |
| --- | --- |
| A23C U70A | 1.48 |
| G21A A66G | 1.12 |
| G20C A36G | 2.25 |
| A22U A54U | 1.56 |
| A23G A54U | 1.5 |
| G20A A52U | 1.8 |
| U19C U72A | 0.33 |
| A22G A126C | 0.67 |
| U19C G136A | 1.38 |
| A22G A69U | 1.28 |
| A22G A69G | 1.07 |
| A22U A118U | 0.64 |
| A22U A118G | 1.13 |
| U19C U132A | 1.89 |
| A23G A55U | 0.86 |
| A23G A55C | 1.33 |
| U19C A117G | 1.58 |
| U19C C105U | 0.15 |
| U19C C105G | 0.04 |
| A22U G65U | 0.33 |
| A22U U39A | 2.33 |
| U19G A78U | 0.89 |
| U19G A78C | 0.39 |
| A22G C105U | 0.25 |

| Variant | self-cleavage |
| --- | --- |
| A22C U108A | 0.02 |
| U19C C88A | 2.03 |
| A22U U26C | 0.97 |
| G21A U130C | 0.53 |
| A22U G99A | 1.39 |
| A23C A59G | 0.63 |
| A23C A59U | 1.77 |
| A22G G74A | 0.24 |
| A22G U120C | 0.98 |
| U19C U57A | 1.21 |
| U19C U57C | 1.37 |
| A23G A47G | 0.86 |
| A23G A47U | 0.77 |
| G20A A110U | 1.39 |
| A23G A69U | 1.12 |
| A22U A92G | 1.41 |
| A22U A92U | 2.17 |
| G21C A126G | 1.63 |
| A22U G74A | 0.1 |
| A22U G74U | 0.27 |
| G20A C121U | 2.49 |
| A22U A89U | 1.91 |
| U19G C40A | 1.04 |
| A22U A52G | 1.63 |

| Variant | self-cleavage |
| --- | --- |
| A22C A69U | 1.74 |
| A23G A82U | 0.2 |
| A23G A82C | 0.09 |
| A22U A51U | 1.14 |
| A22G A66C | 1.49 |
| A22G A66G | 1.25 |
| A22G A66U | 1.41 |
| A22G U133C | 0.65 |
| A22G A24C | 0.56 |
| U19G A47U | 1.08 |
| U19C C34U | 0.91 |
| A22U U132C | 1.99 |
| G20A A62G | 1.45 |
| A22U A59G | 1.48 |
| A22U A59U | 1.71 |
| G20U U97C | 0.63 |
| A23G A24U | 1.72 |
| U19C A140G | 0.62 |
| G20U A68G | 1.59 |
| A22G U122G | 1.67 |
| A22G U122C | 0.86 |
| A22G C112A | 0.05 |
| G20A A116G | 0.47 |
| A22C U102C | 2.42 |

| Variant | self-cleavage |
| --- | --- |
| A23G A52G | 1.13 |
| A23G A52U | 1.69 |
| A23G A36U | 1.74 |
| G20A U97A | 2.67 |
| U19C U127A | 2.17 |
| U19C U127C | 0.95 |
| U19C A116G | 0.11 |
| U19C A116U | 0.3 |
| A22G A62G | 1.12 |
| A22U U139A | 1.63 |
| G21A A36G | 1.9 |
| A22G U49A | 0.65 |
| A22G A55U | 1.26 |
| A22G A55G | 1.16 |
| A22G A135U | 1.86 |
| A22G A135G | 1.54 |
| U19G U100A | 0.74 |
| U19G U100C | 2.09 |
| A22G A51U | 1.24 |
| G21U A118G | 1.98 |
| A22U A114G | 1.09 |
| G21C A118G | 1.14 |
| U19C G48U | 2.78 |
| A22G G29C | 2.4 |

| Variant | self-cleavage |
| --- | --- |
| A22U A62G | 1.98 |
| U19G A51G | 0.33 |
| U19G A51U | 1.46 |
| A22U A23U | 1.59 |
| A22G C113U | 0.14 |
| U19C A111U | 0.07 |
| U19C U37A | 0.9 |
| A22G U87C | 1.28 |
| A22G U87A | 1.28 |
| A22G A68C | 0.64 |
| A22U A134G | 1.35 |
| A22U U49C | 0.77 |
| A22U A125G | 0.52 |
| G21C U102C | 2.26 |
| G21A A24G | 1.35 |
| G21A A86U | 2.01 |
| A23C A51U | 1.46 |
| A22G A47G | 1.34 |
| A22G A47U | 0.62 |
| A22U U130C | 0.32 |
| A22G A54U | 1.08 |
| A22G C40U | 1.85 |
| A22G A91C | 1.93 |
| A22G A91U | 1.06 |

| Variant | self-cleavage |
| --- | --- |
| A22G A91G | 0.49 |
| A23G A59U | 1 |
| U19C U102A | 1.29 |
| A22G C46G | 1.35 |
| A22G C77U | 1.62 |
| A23G A90U | 1.85 |
| A22G A60U | 0.77 |
| U19C C109U | 0.63 |
| A22G A23U | 1.26 |
| A23G A33U | 1.9 |
| A23G A33C | 1.52 |
| A23G A33G | 0.84 |
| G20A U38C | 1.72 |
| G20A U38G | 1.25 |
| A23G A86C | 1.06 |
| A22U U37C | 0.85 |
| G20U A82U | 0.2 |
| A23G A68G | 1.29 |
| G21C A78G | 0.27 |
| A22G A129C | 1.08 |
| A22G U70A | 1.28 |
| A22U U57G | 1.17 |
| A22G A125U | 1.32 |
